From the supplement of paper PMC9233669
Variants at the floor of the assay were thinned out.

Key:
biotinyl-Phe-oxazolone = assay: self-aminoacylation, catalytic enhancement (BFO) (fold over background); higher = more active; k-Seq, kA / k0A0; sequences stand for … in GGGAAUGGAUCCACAUCUACGAAUUC…UUCACUGCAGACUUGACGAAGCUG
How it was run: (§1)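 Working in 50 μL HEPES/NaCl/KCl/MgCl2/CaCl2 buffer with 5% acetonitrile at pH 6.9–7.0, mutagenized RNA pools (0.43 μM; 21-nt variable region) were reacted with 2–1250 μM of each biotinyl-aminoacyl-oxazolone for 90 minutes at room temperature. Streptavidin capture followed, with quantification by triplicate qPCR and Illumina sequencing. Catalytic enhancement is reported as median kA over the uncatalyzed rate, the low-activity peak of a bimodal Gaussian fit to the data.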

biotinyl-Trp-oxazolone = assay: self-aminoacylation, catalytic enhancement (BWO) (fold over background); higher = more active; k-Seq, kA / k0A0; sequences stand for … in GGGAAUGGAUCCACAUCUACGAAUUC…UUCACUGCAGACUUGACGAAGCUG
How it was run: as §1

biotinyl-Val-oxazolone = assay: self-aminoacylation, catalytic enhancement (BVO) (fold over background); higher = more active; k-Seq, kA / k0A0; sequences stand for … in GGGAAUGGAUCCACAUCUACGAAUUC…UUCACUGCAGACUUGACGAAGCUG
How it was run: as §1

biotinyl-Ile-oxazolone = assay: self-aminoacylation, catalytic enhancement (BIO) (fold over background); higher = more active; k-Seq, kA / k0A0; sequences stand for … in GGGAAUGGAUCCACAUCUACGAAUUC…UUCACUGCAGACUUGACGAAGCUG
How it was run: as §1

biotinyl-Leu-oxazolone = assay: self-aminoacylation, catalytic enhancement (BLO) (fold over background); higher = more active; k-Seq, kA / k0A0; sequences stand for … in GGGAAUGGAUCCACAUCUACGAAUUC…UUCACUGCAGACUUGACGAAGCUG
How it was run: as §1

biotinyl-Met-oxazolone = assay: self-aminoacylation, catalytic enhancement (BMO) (fold over background); higher = more active; k-Seq, kA / k0A0; sequences stand for … in GGGAAUGGAUCCACAUCUACGAAUUC…UUCACUGCAGACUUGACGAAGCUG
How it was run: as §1

Row | Sequence | self-aminoacylation (biotinyl-Phe-oxazolone) | self-aminoacylation (biotinyl-Trp-oxazolone) | self-aminoacylation (biotinyl-Val-oxazolone) | self-aminoacylation (biotinyl-Ile-oxazolone) | self-aminoacylation (biotinyl-Leu-oxazolone) | self-aminoacylation (biotinyl-Met-oxazolone)
1 | AAGUUUGCUAAUAGUCGCCGG [Fam3.1 aminoacylation ribozyme variant] | 10.5 | 5.77 | 4.14 | 3.08 | 3.53 | 5.01
2 | AAGUUUGCUAAUAGUCGCUAC [Fam3.1 aminoacylation ribozyme variant] | 0.82 | 0.666 | 0.697 | 0.54 | 0.476 | 0.57
3 | AAGUUUGCUAAUAGUCGGAAG [Fam3.1 aminoacylation ribozyme variant] | 14.8 | 4.58 | 1.03 | 1.13 | 0.934 | 1.16
4 | AAGUUUGCUAAUAGUCGUAAA [Fam3.1 aminoacylation ribozyme variant] | 2.23 | 1.01 | 1.04 | 0.909 | 0.826 | 0.973
5 | AAGUUUGCUAAUAGUCGUAAC [Fam3.1 aminoacylation ribozyme variant] | 1.02 | 0.778 | 0.822 | 0.726 | 0.68 | 0.658
6 | AAGUUUGCUAAUAGUCGUCAG [Fam3.1 aminoacylation ribozyme variant] | 2.16 | 1.26 | 0.905 | 0.795 | 0.715 | 0.638
7 | AAGUUUGCUAAUAGUCGUGAG [Fam3.1 aminoacylation ribozyme variant] | 2.86 | 2.15 | 1.04 | 1.19 | 1.13 | 1.31
8 | AAGUUUGCUAAUAGUCUCGAG [Fam3.1 aminoacylation ribozyme variant] | 2.01 | 1.96 | 0.95 | 1.06 | 1.14 | 1.02
9 | AAGUUUGCUAAUAGUGGCAAA [Fam3.1 aminoacylation ribozyme variant] | 0.91 | 1.24 | 1.04 | 1.09 | 0.789 | 0.891
10 | AAGUUUGCUAAUAGUGGCAAG [Fam3.1 aminoacylation ribozyme variant] | 0.894 | 0.773 | 0.739 | 0.737 | 0.692 | 0.734
11 | AAGUUUGCUAAUAGUUGGAAG [Fam3.1 aminoacylation ribozyme variant] | 1.47 | 0.896 | 1.25 | 1.29 | 1.21 | 1.38
12 | AAGUUUGCUAAUAUUAGCAAG [Fam3.1 aminoacylation ribozyme variant] | 1.2 | 1.3 | 1.24 | 1.28 | 1.08 | 1.32
13 | AAGUUUGCUAAUAUUCGCAAC [Fam3.1 aminoacylation ribozyme variant] | 0.972 | 2.36 | 1.17 | 1.15 | 1.11 | 1.22
14 | AAGUUUGCUAAUAUUCGCAGG [Fam3.1 aminoacylation ribozyme variant] | 1.32 | 2.04 | 1.31 | 1.35 | 1.4 | 1.68
15 | AAGUUUGCUAAUAUUCGCAUG [Fam3.1 aminoacylation ribozyme variant] | 1.47 | 0.844 | 1.19 | 1.14 | 1.08 | 1.19
16 | AAGUUUGCUAAUAUUCUCAAG [Fam3.1 aminoacylation ribozyme variant] | 1.04 | 1.48 | 1.18 | 1.1 | 1.15 | 1.17
17 | AAGUUUGCUAAUAUUGGCAAG [Fam3.1 aminoacylation ribozyme variant] | 0.81 | 1.22 | 0.784 | 0.773 | 0.847 | 0.894
18 | AAGUUUGCUAAUCCUCGCAAG [Fam3.1 aminoacylation ribozyme variant] | 0.881 | 0.599 | 0.733 | 0.706 | 0.725 | 0.628
19 | AAGUUUGCUAAUCGUCGCAAU [Fam3.1 aminoacylation ribozyme variant] | 0.833 | 1.03 | 1.3 | 1.39 | 1.04 | 1.3
20 | AAGUUUGCUAAUCGUCGCGAG [Fam3.1 aminoacylation ribozyme variant] | 1.8 | 1.49 | 1.01 | 1.04 | 1.36 | 1.27
21 | AAGUUUGCUAAUCGUCGCUAG [Fam3.1 aminoacylation ribozyme variant] | 1.07 | 0.871 | 0.834 | 0.976 | 0.87 | 0.844
